How the values were obtained:
[1] = target: T1, CMV movement protein (CMV-MP) (Cucumber mosaic virus) (UniProt Q83252); experiment: cell_activity
T1 sequence: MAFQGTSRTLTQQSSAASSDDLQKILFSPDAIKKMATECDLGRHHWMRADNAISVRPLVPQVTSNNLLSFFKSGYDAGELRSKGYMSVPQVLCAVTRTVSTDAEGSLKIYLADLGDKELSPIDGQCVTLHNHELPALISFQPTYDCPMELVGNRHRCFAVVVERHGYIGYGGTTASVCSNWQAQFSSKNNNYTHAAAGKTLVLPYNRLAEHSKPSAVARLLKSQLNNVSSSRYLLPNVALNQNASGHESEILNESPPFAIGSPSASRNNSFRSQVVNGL

[2] = target: T2, CmPSRB1 (recombinant PSRB1) (Cucurbita maxima); experiment: cell_activity; conditions: cell-to-cell movement, binding not directly measured
T2 chain: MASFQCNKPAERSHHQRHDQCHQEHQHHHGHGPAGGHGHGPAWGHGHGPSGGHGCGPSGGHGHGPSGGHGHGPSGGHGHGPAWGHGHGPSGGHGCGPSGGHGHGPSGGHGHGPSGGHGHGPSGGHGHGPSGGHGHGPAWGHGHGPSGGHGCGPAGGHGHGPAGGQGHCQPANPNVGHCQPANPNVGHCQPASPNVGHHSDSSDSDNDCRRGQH

[3] = target: T3, KNOTTED1 (KN1) (UniProt P24345); experiment: cell_activity
T3 sequence: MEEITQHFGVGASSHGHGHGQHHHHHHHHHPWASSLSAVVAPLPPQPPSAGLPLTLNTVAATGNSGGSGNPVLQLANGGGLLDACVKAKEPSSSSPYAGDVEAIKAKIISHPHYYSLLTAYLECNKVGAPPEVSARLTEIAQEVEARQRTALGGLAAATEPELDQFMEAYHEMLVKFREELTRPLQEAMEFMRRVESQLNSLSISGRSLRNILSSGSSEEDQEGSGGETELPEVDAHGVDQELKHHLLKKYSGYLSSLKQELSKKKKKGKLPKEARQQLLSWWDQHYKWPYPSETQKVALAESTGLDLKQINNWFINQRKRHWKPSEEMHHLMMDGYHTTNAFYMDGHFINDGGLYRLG

[4] = target: T2, CmPSRB1 (recombinant PSRB1); experiment: EMSA; competition gel shift; 20 mM Hepes pH 7.0, 50 mM KCl, 1 mM EDTA, 30 C; conditions: tags: none (native, pET15b, E. coli); 3' 2 nt overhang
Method: Electrophoretic mobility-shift assays were carried out as described (S12). Reactions were assembled on ice in 10 μl of binding buffer (20 mM Hepes, pH 7.0, 50 mM KCl, 1 mM EDTA, 1 mM DTT, and 5% [v/v] glycerol). An equal amount of ³²P end-labeled 25 nt ss- or dsRNA was used in assays with various concentrations of purified and desalted R-CmPSRB1. Reaction mixtures were incubated at 30° C. for 20 min and then placed on ice. Reactions were then resolved on a 5% (v/v) nondenaturing polyacrylamide gel that was pre-run for 30 min at 50 V. Electrophoresis was typically carried out at 4° C. and 200 V. The gel was then dried and autoradiographed.

Molecule: 25 nt dsRNA (overhang type not stated)
- activity (% injections with movement) ([1]; with FITC-dextran, 0 of 13): 0

Molecule: 25 nt ssDNA
- activity (% injections with movement) ([2]; 0 of 14): 0

Molecule: CmRINGP RNA (1 kb)
- activity (% injections with movement) ([1]; cell-to-cell movement, 10 of 10): 100
- activity (% injections with movement) ([3]; cell-to-cell movement, 0 of 12): 0
- activity (% injections with movement) ([2]; 0 of 8): 0

Molecule: GGAAAACUACCUGUUCCAUGGCCAA
- activity (% injections with movement) ([1]; cell-to-cell movement, 0 of 10): 0

Molecule: KN1 RNA (antisense)
- activity (% injections with movement) ([3]; CITED includes previous studies (S13), 2 of 10, cited from earlier work): 20

Molecule: KN1 RNA (sense)
- activity (% injections with movement) ([3]; CITED includes previous studies (S13), 20 of 22, cited from earlier work): 91

B1: 25 nt dsRNA 3' 2 nt overhang (FK221/FK224) (dsRNA)
RNA 1: GGAAAACUACCUGUUCCAUGGCCAA
RNA 2: GGCCAUGGAACAGGUAGUUUUCCAG
- Kd [4]: 30.6 µM
